Source: paper PMC8455617 (2021)
Where “and” joins values, the source holds several entries; their conditions need not be identical. Equal entries are not always repeated.

T1: citrate synthase, mitochondrial (Sus scrofa, UniProt P00889)
T1 chain: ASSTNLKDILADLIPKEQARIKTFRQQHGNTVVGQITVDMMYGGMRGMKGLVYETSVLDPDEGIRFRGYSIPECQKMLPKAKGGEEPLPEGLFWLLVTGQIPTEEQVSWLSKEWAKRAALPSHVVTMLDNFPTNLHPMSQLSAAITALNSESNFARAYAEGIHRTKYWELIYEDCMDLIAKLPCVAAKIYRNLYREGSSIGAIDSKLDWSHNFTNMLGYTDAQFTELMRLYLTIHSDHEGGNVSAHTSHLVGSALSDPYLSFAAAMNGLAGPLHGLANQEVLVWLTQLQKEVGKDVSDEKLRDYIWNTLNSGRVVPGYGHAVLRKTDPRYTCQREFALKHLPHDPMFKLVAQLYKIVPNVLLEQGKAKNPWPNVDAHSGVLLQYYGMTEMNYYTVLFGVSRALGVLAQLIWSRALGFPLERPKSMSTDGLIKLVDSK


Molecular target: T1, citrate synthase, mitochondrial
Test: MST

| Kd | Binder |
| --- | --- |
| 25.1 µM | malate dehydrogenase, mitochondrial (protein, 10 mM citrate) AKVAVLGASGGIGQPLSLLLKNSPLVSRLTLYDIAHTPGVAADLSHIETRATVKGYLGPEQLPDCLKGCDVVVIPAGVPRKPGMTRDDLFNTNATIVATLTAACAQHCPDAMICIISNPVNSTIPITAEVFKKHGVYNPNKIFGVTTLDIVRANAFVAELKGLDPARVSVPVIGGHAGKTIIPLISQCTPKVDFPQDQLSTLTGRIQEAGTEVVKAKAGAGSATLSMAYAGARFVFSLVDAMNGKEGVVECSFVKSQETDCPYFSTPLLLGKKGIEKNLGIGKISPFEEKMIAEAIPELKASIKKGEEFVKNMK |
| 0.76 µM and 0.46 µM | malate dehydrogenase, mitochondrial (protein, 10 mM ATP) AKVAVLGASGGIGQPLSLLLKNSPLVSRLTLYDIAHTPGVAADLSHIETRATVKGYLGPEQLPDCLKGCDVVVIPAGVPRKPGMTRDDLFNTNATIVATLTAACAQHCPDAMICIISNPVNSTIPITAEVFKKHGVYNPNKIFGVTTLDIVRANAFVAELKGLDPARVSVPVIGGHAGKTIIPLISQCTPKVDFPQDQLSTLTGRIQEAGTEVVKAKAGAGSATLSMAYAGARFVFSLVDAMNGKEGVVECSFVKSQETDCPYFSTPLLLGKKGIEKNLGIGKISPFEEKMIAEAIPELKASIKKGEEFVKNMK |
| 1.06 µM | malate dehydrogenase, mitochondrial (protein, 1.25 mM ATP) AKVAVLGASGGIGQPLSLLLKNSPLVSRLTLYDIAHTPGVAADLSHIETRATVKGYLGPEQLPDCLKGCDVVVIPAGVPRKPGMTRDDLFNTNATIVATLTAACAQHCPDAMICIISNPVNSTIPITAEVFKKHGVYNPNKIFGVTTLDIVRANAFVAELKGLDPARVSVPVIGGHAGKTIIPLISQCTPKVDFPQDQLSTLTGRIQEAGTEVVKAKAGAGSATLSMAYAGARFVFSLVDAMNGKEGVVECSFVKSQETDCPYFSTPLLLGKKGIEKNLGIGKISPFEEKMIAEAIPELKASIKKGEEFVKNMK |
| 2.24 µM | malate dehydrogenase, mitochondrial (protein, 10 mM ADP) AKVAVLGASGGIGQPLSLLLKNSPLVSRLTLYDIAHTPGVAADLSHIETRATVKGYLGPEQLPDCLKGCDVVVIPAGVPRKPGMTRDDLFNTNATIVATLTAACAQHCPDAMICIISNPVNSTIPITAEVFKKHGVYNPNKIFGVTTLDIVRANAFVAELKGLDPARVSVPVIGGHAGKTIIPLISQCTPKVDFPQDQLSTLTGRIQEAGTEVVKAKAGAGSATLSMAYAGARFVFSLVDAMNGKEGVVECSFVKSQETDCPYFSTPLLLGKKGIEKNLGIGKISPFEEKMIAEAIPELKASIKKGEEFVKNMK |
| 2.23 µM | malate dehydrogenase, mitochondrial (protein, 10 mM oxaloacetate) AKVAVLGASGGIGQPLSLLLKNSPLVSRLTLYDIAHTPGVAADLSHIETRATVKGYLGPEQLPDCLKGCDVVVIPAGVPRKPGMTRDDLFNTNATIVATLTAACAQHCPDAMICIISNPVNSTIPITAEVFKKHGVYNPNKIFGVTTLDIVRANAFVAELKGLDPARVSVPVIGGHAGKTIIPLISQCTPKVDFPQDQLSTLTGRIQEAGTEVVKAKAGAGSATLSMAYAGARFVFSLVDAMNGKEGVVECSFVKSQETDCPYFSTPLLLGKKGIEKNLGIGKISPFEEKMIAEAIPELKASIKKGEEFVKNMK |
| 0.77 µM | malate dehydrogenase, mitochondrial (protein, 5 mM ATP) AKVAVLGASGGIGQPLSLLLKNSPLVSRLTLYDIAHTPGVAADLSHIETRATVKGYLGPEQLPDCLKGCDVVVIPAGVPRKPGMTRDDLFNTNATIVATLTAACAQHCPDAMICIISNPVNSTIPITAEVFKKHGVYNPNKIFGVTTLDIVRANAFVAELKGLDPARVSVPVIGGHAGKTIIPLISQCTPKVDFPQDQLSTLTGRIQEAGTEVVKAKAGAGSATLSMAYAGARFVFSLVDAMNGKEGVVECSFVKSQETDCPYFSTPLLLGKKGIEKNLGIGKISPFEEKMIAEAIPELKASIKKGEEFVKNMK |
| 1.85 µM and 1.8 µM | malate dehydrogenase, mitochondrial (protein, 10 mM malate) AKVAVLGASGGIGQPLSLLLKNSPLVSRLTLYDIAHTPGVAADLSHIETRATVKGYLGPEQLPDCLKGCDVVVIPAGVPRKPGMTRDDLFNTNATIVATLTAACAQHCPDAMICIISNPVNSTIPITAEVFKKHGVYNPNKIFGVTTLDIVRANAFVAELKGLDPARVSVPVIGGHAGKTIIPLISQCTPKVDFPQDQLSTLTGRIQEAGTEVVKAKAGAGSATLSMAYAGARFVFSLVDAMNGKEGVVECSFVKSQETDCPYFSTPLLLGKKGIEKNLGIGKISPFEEKMIAEAIPELKASIKKGEEFVKNMK |
| 2.01 µM | malate dehydrogenase, mitochondrial (protein, 10 mM oxaloacetate and NADH) AKVAVLGASGGIGQPLSLLLKNSPLVSRLTLYDIAHTPGVAADLSHIETRATVKGYLGPEQLPDCLKGCDVVVIPAGVPRKPGMTRDDLFNTNATIVATLTAACAQHCPDAMICIISNPVNSTIPITAEVFKKHGVYNPNKIFGVTTLDIVRANAFVAELKGLDPARVSVPVIGGHAGKTIIPLISQCTPKVDFPQDQLSTLTGRIQEAGTEVVKAKAGAGSATLSMAYAGARFVFSLVDAMNGKEGVVECSFVKSQETDCPYFSTPLLLGKKGIEKNLGIGKISPFEEKMIAEAIPELKASIKKGEEFVKNMK |

Second part, the binder before the results:

| Binder | Kd |
| --- | --- |
| malate dehydrogenase, mitochondrial (protein, 10 mM succinyl-CoA) AKVAVLGASGGIGQPLSLLLKNSPLVSRLTLYDIAHTPGVAADLSHIETRATVKGYLGPEQLPDCLKGCDVVVIPAGVPRKPGMTRDDLFNTNATIVATLTAACAQHCPDAMICIISNPVNSTIPITAEVFKKHGVYNPNKIFGVTTLDIVRANAFVAELKGLDPARVSVPVIGGHAGKTIIPLISQCTPKVDFPQDQLSTLTGRIQEAGTEVVKAKAGAGSATLSMAYAGARFVFSLVDAMNGKEGVVECSFVKSQETDCPYFSTPLLLGKKGIEKNLGIGKISPFEEKMIAEAIPELKASIKKGEEFVKNMK | 1.97 µM |
| malate dehydrogenase, mitochondrial (protein, 10 mM NADH) AKVAVLGASGGIGQPLSLLLKNSPLVSRLTLYDIAHTPGVAADLSHIETRATVKGYLGPEQLPDCLKGCDVVVIPAGVPRKPGMTRDDLFNTNATIVATLTAACAQHCPDAMICIISNPVNSTIPITAEVFKKHGVYNPNKIFGVTTLDIVRANAFVAELKGLDPARVSVPVIGGHAGKTIIPLISQCTPKVDFPQDQLSTLTGRIQEAGTEVVKAKAGAGSATLSMAYAGARFVFSLVDAMNGKEGVVECSFVKSQETDCPYFSTPLLLGKKGIEKNLGIGKISPFEEKMIAEAIPELKASIKKGEEFVKNMK | 7.5 µM |
| malate dehydrogenase, mitochondrial (protein, 10 mM succinate) AKVAVLGASGGIGQPLSLLLKNSPLVSRLTLYDIAHTPGVAADLSHIETRATVKGYLGPEQLPDCLKGCDVVVIPAGVPRKPGMTRDDLFNTNATIVATLTAACAQHCPDAMICIISNPVNSTIPITAEVFKKHGVYNPNKIFGVTTLDIVRANAFVAELKGLDPARVSVPVIGGHAGKTIIPLISQCTPKVDFPQDQLSTLTGRIQEAGTEVVKAKAGAGSATLSMAYAGARFVFSLVDAMNGKEGVVECSFVKSQETDCPYFSTPLLLGKKGIEKNLGIGKISPFEEKMIAEAIPELKASIKKGEEFVKNMK | 0.18 µM |
| malate dehydrogenase, mitochondrial (protein, 20 mM ATP) AKVAVLGASGGIGQPLSLLLKNSPLVSRLTLYDIAHTPGVAADLSHIETRATVKGYLGPEQLPDCLKGCDVVVIPAGVPRKPGMTRDDLFNTNATIVATLTAACAQHCPDAMICIISNPVNSTIPITAEVFKKHGVYNPNKIFGVTTLDIVRANAFVAELKGLDPARVSVPVIGGHAGKTIIPLISQCTPKVDFPQDQLSTLTGRIQEAGTEVVKAKAGAGSATLSMAYAGARFVFSLVDAMNGKEGVVECSFVKSQETDCPYFSTPLLLGKKGIEKNLGIGKISPFEEKMIAEAIPELKASIKKGEEFVKNMK | 0.72 µM |
| malate dehydrogenase, mitochondrial (protein, 10 mM alpha-ketoglutarate) AKVAVLGASGGIGQPLSLLLKNSPLVSRLTLYDIAHTPGVAADLSHIETRATVKGYLGPEQLPDCLKGCDVVVIPAGVPRKPGMTRDDLFNTNATIVATLTAACAQHCPDAMICIISNPVNSTIPITAEVFKKHGVYNPNKIFGVTTLDIVRANAFVAELKGLDPARVSVPVIGGHAGKTIIPLISQCTPKVDFPQDQLSTLTGRIQEAGTEVVKAKAGAGSATLSMAYAGARFVFSLVDAMNGKEGVVECSFVKSQETDCPYFSTPLLLGKKGIEKNLGIGKISPFEEKMIAEAIPELKASIKKGEEFVKNMK | 1.14 µM |
| malate dehydrogenase, mitochondrial (protein, 10 mM oxaloacetate and acetyl-CoA) AKVAVLGASGGIGQPLSLLLKNSPLVSRLTLYDIAHTPGVAADLSHIETRATVKGYLGPEQLPDCLKGCDVVVIPAGVPRKPGMTRDDLFNTNATIVATLTAACAQHCPDAMICIISNPVNSTIPITAEVFKKHGVYNPNKIFGVTTLDIVRANAFVAELKGLDPARVSVPVIGGHAGKTIIPLISQCTPKVDFPQDQLSTLTGRIQEAGTEVVKAKAGAGSATLSMAYAGARFVFSLVDAMNGKEGVVECSFVKSQETDCPYFSTPLLLGKKGIEKNLGIGKISPFEEKMIAEAIPELKASIKKGEEFVKNMK | 0.52 µM |
| malate dehydrogenase, mitochondrial (protein, 10 mM CoA) AKVAVLGASGGIGQPLSLLLKNSPLVSRLTLYDIAHTPGVAADLSHIETRATVKGYLGPEQLPDCLKGCDVVVIPAGVPRKPGMTRDDLFNTNATIVATLTAACAQHCPDAMICIISNPVNSTIPITAEVFKKHGVYNPNKIFGVTTLDIVRANAFVAELKGLDPARVSVPVIGGHAGKTIIPLISQCTPKVDFPQDQLSTLTGRIQEAGTEVVKAKAGAGSATLSMAYAGARFVFSLVDAMNGKEGVVECSFVKSQETDCPYFSTPLLLGKKGIEKNLGIGKISPFEEKMIAEAIPELKASIKKGEEFVKNMK | 2.32 µM |
| malate dehydrogenase, mitochondrial (protein, 10 mM AMP) AKVAVLGASGGIGQPLSLLLKNSPLVSRLTLYDIAHTPGVAADLSHIETRATVKGYLGPEQLPDCLKGCDVVVIPAGVPRKPGMTRDDLFNTNATIVATLTAACAQHCPDAMICIISNPVNSTIPITAEVFKKHGVYNPNKIFGVTTLDIVRANAFVAELKGLDPARVSVPVIGGHAGKTIIPLISQCTPKVDFPQDQLSTLTGRIQEAGTEVVKAKAGAGSATLSMAYAGARFVFSLVDAMNGKEGVVECSFVKSQETDCPYFSTPLLLGKKGIEKNLGIGKISPFEEKMIAEAIPELKASIKKGEEFVKNMK | 3.1 µM |
